Where two headings read alike, the source gives them in different places.
How the values were obtained:
[1] = molecular target: T1, Antibody 178-09_His B.1.1.7 (27080) (SARS-CoV-2, UniProt P0DTC2 14-685); experiment: Carterra SPR
T1 construct: domain: S1; also called TB178-9

[2] = molecular target: T2, Antibody 178-10_His CA_W152C_L452R_D614G (27081) (SARS-CoV-2, UniProt P0DTC2 14-685); experiment: Carterra SPR
T2 construct: domain: S1; also called CA variant S1; California variant S1

[3] = molecular target: T3, S1 RBD L452R E484Q (Acro) (SARS-CoV-2, UniProt P0DTC2 319-537); experiment: Carterra SPR
T3 construct: domain: S1 RBD; also called SARS-COV-2 RBD India Var; L452R E484Q S1; India variant mutation L452R E484Q

[4] = molecular target: T4, Antibody 178-08_His 501.V2 (27079) (SARS-CoV-2, UniProt P0DTC2 14-685); experiment: Carterra SPR
T4 construct: domain: S1; also called TB178-8

[5] = molecular target: T1, Antibody 178-09_His B.1.1.7 (27080); experiment: Carterra SPR; remark: listed apart in the source
[6] = molecular target: T2, Antibody 178-10_His …; experiment: Carterra SPR; remark: listed apart in the source
[7] = molecular target: T3, S1 RBD L452R E484Q (Acro); experiment: Carterra SPR; remark: listed apart in the source
[8] = molecular target: T4, Antibody 178-08_His 501.V2 (27079); experiment: Carterra SPR; remark: listed apart in the source
[9] = molecular target: T5, SARS-CoV-2 S protein trimer (Kappa B.1.617.1 India variant) [SPN-C52Hr] (SARS-CoV-2, UniProt P0DTC2 16-1213); experiment: Carterra SPR
T5 construct: also called B.1.617.1 Kappa India variant

[10] = molecular target: T6, SARS-CoV-2 S1 [S1N-C52H4] (SARS-CoV-2, UniProt P0DTC2 16-685); experiment: Carterra SPR
T6 construct: domain: S1

[11] = molecular target: T7, SARS-CoV-2 S protein trimer (Alpha B.1.1.7 UK variant) [SPN-C52H6] (SARS-CoV-2, UniProt P0DTC2 16-1213); experiment: Carterra SPR
T7 construct: also called B.1.1.7 Alpha UK variant

[12] = molecular target: SARS-CoV-2 S protein trimer (P.1 Gamma Brazil variant) [SPN-C52Hg] (SARS-CoV-2, UniProt P0DTC2 16-1213); experiment: Carterra SPR
[13] = molecular target: T8, SARS-CoV-2 S protein trimer (Delta B.1.617.2 India variant) [SPN-C52He] (SARS-CoV-2, UniProt P0DTC2 16-1213); experiment: Carterra SPR
T8 construct: also called B.1.617.2 Delta India variant [SPN-C52he]

[14] = molecular target: SARS-CoV-2 S protein trimer [SPN-C52H7] (SARS-CoV-2, UniProt P0DTC2 16-1213); experiment: Carterra SPR
[15] = molecular target: T9, SARS-CoV-2 S protein trimer (Beta B.1.351 SA variant) [SPN-C52Hk] (SARS-CoV-2, UniProt P0DTC2 16-1213); experiment: Carterra SPR
T9 construct: also called B.1.351 Beta SA variant

[16] = molecular target: T5, SARS-CoV-2 S protein trimer (Kappa …); experiment: binding kinetics, Carterra SPR
[17] = molecular target: T7, SARS-CoV-2 S protein trimer (Alpha …); experiment: binding kinetics, Carterra SPR
[18] = molecular target: T8, SARS-CoV-2 S protein trimer (Delta …); experiment: binding kinetics, Carterra SPR
[19] = molecular target: SARS-CoV-2 S protein trimer [SPN-C52H9] (SARS-CoV-2, UniProt P0DTC2 16-1213); experiment: binding kinetics, Carterra SPR
[20] = molecular target: T9, SARS-CoV-2 S protein trimer (Beta …); experiment: binding kinetics, Carterra SPR

B1: 7-09 (VHH)
VHH: EVQLVESGGGLVQPGGSLRLSCAASGGTFSSIGMGWFRQAPGKEREFVAAISWDGGATAYADSVKGRFTISADNSKNTAYLQMNSLKPEDTAVYYCAKEDVGKPFDWGQGTLVTVSS
notes: also called 7-9
Q: What does the source list for B1?
A: Kd [1]: 23.2 nM; Kd [2]: 38.7 nM; Kd [3]: 177000 nM; binding result [4]: no binding; Kd [5]: 23.2 nM; Kd [6]: 38.7 nM; Kd [7]: 177000 nM

B2: 7-14 (VHH)
VHH: EVQLVESGGGLVQPGGSLRLSCAASGSTFSINAMGWFRQAPGKEREFVAGISRGGTTNYADSVKGRFTISADNSKNTAYLQMNSLKPEDTAVYYCAADGVPEYSDYASGPVWGQGTLVTVSS
Q: For B2, which Kd [8] is on record?
A: 16.9 nM

Q: And the Kd [1]?
A: 19.2 nM

Q: What about the Kd [2] of the same binder?
A: 43.1 nM

Q: What about the Kd [3] of the same binder?
A: 20.1 nM

Q: And the Kd [4]?
A: 16.9 nM

Q: And the Kd [5]?
A: 19.2 nM

Q: And the Kd [6]?
A: 43.1 nM

Q: What about the Kd [7] of the same binder?
A: 20.1 nM

Q: And the Kd [9]?
A: 0.012 nM

Q: And the koff [9]?
A: 1e-05 s⁻¹

Q: And the kon [9]?
A: 835000 M⁻¹ s⁻¹

Q: What about the Kd [10] of the same binder?
A: 12.4 nM

Q: What about the koff [10] of the same binder?
A: 0.000464 s⁻¹

Q: What about the kon [10] of the same binder?
A: 37400 M⁻¹ s⁻¹

Q: And the Kd [11]?
A: 0.0128 nM

Q: What about the koff [11] of the same binder?
A: 1e-05 s⁻¹

Q: What about the kon [11] of the same binder?
A: 782000 M⁻¹ s⁻¹

Q: What about the Kd [12] of the same binder?
A: 0.0185 nM

Q: And the koff [12]?
A: 1.62e-05 s⁻¹

Q: And the kon [12]?
A: 877000 M⁻¹ s⁻¹

Q: And the Kd [13]?
A: 0.0122 nM

Q: What about the koff [13] of the same binder?
A: 1e-05 s⁻¹

Q: And the kon [13]?
A: 818000 M⁻¹ s⁻¹

Q: What about the Kd [14] of the same binder?
A: ≤ 0.0142 nM

Q: What about the koff [14] of the same binder?
A: ≤ 1e-05 s⁻¹

Q: And the kon [14]?
A: 703000 M⁻¹ s⁻¹

Q: And the Kd [15]?
A: 0.0171 nM

Q: What about the koff [15] of the same binder?
A: 1.6e-05 s⁻¹

Q: And the kon [15]?
A: 931000 M⁻¹ s⁻¹

Q: And the Kd [16]?
A: ≤ 0.0083 nM

Q: What about the koff [16] of the same binder?
A: ≤ 1e-05 s⁻¹

Q: And the kon [16]?
A: 1.2e+06 M⁻¹ s⁻¹

Q: What about the Kd [17] of the same binder?
A: ≤ 0.00862 nM

Q: And the koff [17]?
A: ≤ 1e-05 s⁻¹

Q: What about the kon [17] of the same binder?
A: 1.16e+06 M⁻¹ s⁻¹

Q: What about the Kd [18] of the same binder?
A: ≤ 0.00994 nM

Q: What about the koff [18] of the same binder?
A: ≤ 1e-05 s⁻¹

Q: What about the kon [18] of the same binder?
A: 1.01e+06 M⁻¹ s⁻¹

Q: What about the Kd [19] of the same binder?
A: ≤ 0.0105 nM

Q: And the koff [19]?
A: ≤ 1e-05 s⁻¹

Q: And the kon [19]?
A: 954000 M⁻¹ s⁻¹

Q: What about the Kd [20] of the same binder?
A: 0.00853 nM

Q: And the koff [20]?
A: 1.05e-05 s⁻¹

Q: What about the kon [20] of the same binder?
A: 1.23e+06 M⁻¹ s⁻¹

B3: 7-37 (VHH)
VHH: EVQLVESGGGLVQPGGSLRLSCAASGSTLSINAMGWFRQAPGKEREFVAGITRSGSVTNYADSVKGRFTISADNSKNTAYLQMNSLKPEDTAVYYCAADGVPEYSDYASGPVWGQGTLVTVSS
Q: For B3, which Kd [8] is on record?
A: 123 nM

Q: What about the Kd [1] of the same binder?
A: 17.8 nM

Q: What about the Kd [2] of the same binder?
A: 45.1 nM

Q: And the Kd [3]?
A: 58.5 nM

Q: And the Kd [4]?
A: 123 nM

Q: What about the Kd [5] of the same binder?
A: 17.8 nM

Q: What about the Kd [6] of the same binder?
A: 45.1 nM

Q: And the Kd [7]?
A: 58.5 nM

Q: And the Kd [9]?
A: 0.0276 nM

Q: And the koff [9]?
A: 2.38e-05 s⁻¹

Q: What about the kon [9] of the same binder?
A: 862000 M⁻¹ s⁻¹

Q: What about the Kd [10] of the same binder?
A: 20.8 nM

Q: What about the koff [10] of the same binder?
A: 0.000651 s⁻¹

Q: What about the kon [10] of the same binder?
A: 31400 M⁻¹ s⁻¹

Q: What about the Kd [11] of the same binder?
A: 0.0201 nM

Q: And the koff [11]?
A: 1.52e-05 s⁻¹

Q: And the kon [11]?
A: 757000 M⁻¹ s⁻¹

Q: What about the Kd [12] of the same binder?
A: 0.0322 nM

Q: And the koff [12]?
A: 2.92e-05 s⁻¹

Q: And the kon [12]?
A: 906000 M⁻¹ s⁻¹

Q: What about the Kd [13] of the same binder?
A: 0.0191 nM

Q: What about the koff [13] of the same binder?
A: 1.62e-05 s⁻¹

Q: And the kon [13]?
A: 844000 M⁻¹ s⁻¹

Q: What about the Kd [14] of the same binder?
A: 0.026 nM

Q: What about the koff [14] of the same binder?
A: 1.77e-05 s⁻¹

Q: What about the kon [14] of the same binder?
A: 680000 M⁻¹ s⁻¹

Q: And the Kd [15]?
A: 0.03 nM

Q: And the koff [15]?
A: 2.83e-05 s⁻¹

Q: And the kon [15]?
A: 944000 M⁻¹ s⁻¹

Q: What about the Kd [16] of the same binder?
A: 0.0171 nM

Q: And the koff [16]?
A: 1.67e-05 s⁻¹

Q: And the kon [16]?
A: 977000 M⁻¹ s⁻¹

Q: What about the Kd [17] of the same binder?
A: 0.0131 nM

Q: What about the koff [17] of the same binder?
A: 1.15e-05 s⁻¹

Q: And the kon [17]?
A: 875000 M⁻¹ s⁻¹

Q: And the Kd [18]?
A: ≤ 0.0102 nM

Q: And the koff [18]?
A: ≤ 1e-05 s⁻¹

Q: And the kon [18]?
A: 978000 M⁻¹ s⁻¹

Q: And the Kd [19]?
A: ≤ 0.0118 nM

Q: And the koff [19]?
A: ≤ 1e-05 s⁻¹

Q: And the kon [19]?
A: 844000 M⁻¹ s⁻¹

Q: And the Kd [20]?
A: 0.0224 nM

Q: And the koff [20]?
A: 2.3e-05 s⁻¹

Q: And the kon [20]?
A: 1.03e+06 M⁻¹ s⁻¹

Source: patent US20230265217A1 (TWIST BIOSCIENCE, published 2023)
